The results in this text go back to the supplement of paper PMC9170038.

In series [1] the test system is MS2 coat protein. The experiment in a line: apparent KD of MS2 coat protein, switch ON state; designed switch direction (-1 OFF switch, 1 ON switch): -1; higher = weaker reporter binding. The note with it: FMN input: 0 or 200 uM; Eterna round: R93 (includes R88 designs). The gist of the method:
(§1)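 Values are apparent KD, taken as the median for each design of fits to normalised binding curves from individual clusters. The designed RNA switches were transcribed on-chip from Illumina sequencing clusters and exposed to SNAP-549-labelled MS2 coat protein at twofold increasing amounts from 0.7 or 1.5 nM to 3 µM. Titration used 100 mM Tris-HCl pH 7.5, 80 mM KCl and 4 mM MgCl2, without or with constant ligand.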

The test system of series [2] is MS2 coat protein. The experiment in a line: apparent KD of MS2 coat protein, switch OFF state (with FMN for OFF switches, without FMN for ON switches); designed switch direction (-1 OFF switch, 1 ON switch): -1; higher = weaker reporter binding. To be noted: FMN input: 0 or 200 uM; Eterna round: R93 (includes R88 designs). The gist of the method:
as §1

For the sequence “GAAAAGCAAGGAUAUACAUGAGGAUCACCCAUGUGGAAUGGCGUGACCGAAAGAAAAGGUAGAAGGUGCACGUG [Ragetia]”, the “apparent KD of MS2 coat protein” value was determined as 216 nM with MS2 coat protein [1] and 286 nM with MS2 coat protein [2].

With “AAAAAGGUAGGAUAUGCAAAAAAUAAUUUAAAAAAAAAAAAACAUGAGGAUCACCCAUGUAGAAGGACCAAAAA [Design 2.0]”, the “apparent KD of MS2 coat protein” value was 25.9 nM in the series on MS2 coat protein [1] and 28.8 nM in the series with MS2 coat protein [2].

In the case of “AGAAAGGCAGGAUAUACAUGAGGAUCACCCAUGUUAAGAAAGACGGAAACGUCAAGAAGUAGAAGGGCCAAGAA [Shaken, but not stirred]”, the “apparent KD of MS2 coat protein” value in the series on MS2 coat protein [1] amounted to 21.9 nM; in the series on MS2 coat protein [2] it was 19.7 nM.

“AAAAAACAUGAGGAUCACCCAUGUCAGGAUAUGCUAUGGAAAAUAAAAAUAAAACAUAGCAGAAGGGACACCAA [64%, Meechl, 2]”: the “apparent KD of MS2 coat protein” value in the series with MS2 coat protein [1] turned out to be 32.8 nM; in the series with MS2 coat protein [2], 58.1 nM.

As for “CAGUACUGAGGAUAUACAUGAGGAUCACCCAUGUAUUCCAGCUAGGAAACUAGCAAAUGUAGAAGGCAGUACUG [Ex3: 825]”, the “apparent KD of MS2 coat protein” value with MS2 coat protein [1] was 14 nM; with MS2 coat protein [2], 14.8 nM.

For “AACAGGACAGGAUAUACAUGAGGAUCACCCAUGUAGGAAUUAAGCAGAGUACCAAACAGUAGAAGGGUCAUGGA [Ruby 27]”, the “apparent KD of MS2 coat protein” value in the series on MS2 coat protein [1] was 33.3 nM; in the series with MS2 coat protein [2], 44.7 nM.

In the case of “AACUGACAUGAGGAUCACCCAUGUCAGGAUAUGAUUUGACGAAAAAAAACACGUCAUAUCAGAAGGGACAUGGA [Design 85: Sub-opt X]”, the figures for the “apparent KD of MS2 coat protein” value with MS2 coat protein [1] and with MS2 coat protein [2] were 23.7 nM and 39.5 nM, respectively.

On to “AACAUGUUAGGAUAUAGAAGAAAAGAAAAGAAAGAAAAGAACUAGAAGGAACAUGAGGAUCACCCAUGUAAGAA [EteRNA is fun!]”, for which the “apparent KD of MS2 coat protein” value in the series on MS2 coat protein [1] came to 30.9 nM; with MS2 coat protein [2], 26.1 nM.

For “AACAGUACAGGAUAUACAUGAGGAUCACCCAUGUGAAUAAAUAGUGGCGUACCACAAAGUAGAAGGGUACUGGA [Mat - Exclusion 3 - JL mod - D25]”, the figures for the “apparent KD of MS2 coat protein” value in the series on MS2 coat protein [1] and in the series on MS2 coat protein [2] were 27.4 nM and 136 nM, respectively.

For “AACAGGGCAGGAUAUACAUGAGGAUCACCCAUGUAGGAAACAAGCAGAGUACCAAAAAGUAGAAGGGUCAUGGA [Ruby 31]”, the “apparent KD of MS2 coat protein” value worked out at 30.2 nM in the series with MS2 coat protein [1] and 33.1 nM with MS2 coat protein [2].

For the sequence “AAAGGUACAGGAUAUGCGUGGAAAAAGUGUAUUCACCAACGACAUGAGGAUCACCCAUGUAGAAGGGUACCAAA [Mod of wbt1 from round 1]”, the “apparent KD of MS2 coat protein” value in the series on MS2 coat protein [1] is 25.9 nM; in the series on MS2 coat protein [2], 31.8 nM.

Consider “AGGAAACAUGAGGAUCACCCAUGUGAGGAUAUUUGAAAGAAAAGAAAAGAAAGAAGAAGAAGAAGGCACAAGAA [Merneith]”, for which the entries for the “apparent KD of MS2 coat protein” value in the series with MS2 coat protein [1] and in the series with MS2 coat protein [2] were 17.6 nM and 20.5 nM, respectively.

Take “UAUGAGCGAGGAUAUGCUUGGGACUGUCGGAAGGUGGCGGGACAUGAGGAUCACCCAUGUAGAAGGCGCGAGCG [Harteesian Tree]”: the “apparent KD of MS2 coat protein” value with MS2 coat protein [1] was 59.8 nM; with MS2 coat protein [2], 67.4 nM.

As to “UAAAGACAUGAGGAUCACCCAUGUGAGGAUAUCGGAGAUGACGGAACAUCGAGUUCGGCGAGAAGGCGCAGGAA [JR_Exc001_Sub407]”, the “apparent KD of MS2 coat protein” value was 30.1 nM in the series with MS2 coat protein [1] and 29.2 nM in the series on MS2 coat protein [2].

As for “AAAACACAUGAGGAUCACCCAUGUGAGGAUAUGCAUAAAAAAAAAAAAAAAAAAAAAUGCAGAAGGCACAUAAA [jn_camden]”, the “apparent KD of MS2 coat protein” value worked out at 21 nM in the series with MS2 coat protein [1] and 41.3 nM in the series with MS2 coat protein [2].

Consider “AAAAAGGUAGGAUAUACAUGAGGAUCACCCAUGUGAAAAGAAAAUAAGAAAAGAAAGUGUAGAAGGACCAAAAA [JL JSci Mod In the Red]”, for which the results for the “apparent KD of MS2 coat protein” value with MS2 coat protein [1] and with MS2 coat protein [2] were 33 nM and 44.1 nM, respectively.

For “AAUAAGUGAGGAUAUACUAAAGAAAUGAAAAGAAAUAAAGAACAUGAGGAUCACCCAUGUAGAAGGCACAAUAA [Sekheperenre]”, the “apparent KD of MS2 coat protein” value with MS2 coat protein [1] was found to be 24.4 nM; in the series on MS2 coat protein [2], 24.5 nM.

Regarding “UAUAGACAUGAGGAUCACCCAUGUGAGGAUAUCGGUGACUACAGGACAUCACGUACAAUGAGAAGGCACAGAAA [JR_Exc001_Sub017]”, the figures for the “apparent KD of MS2 coat protein” value in the series on MS2 coat protein [1] and with MS2 coat protein [2] were 40.3 nM and 44.2 nM, respectively.

As to “AGUAUCACAGGAUAUACAUAGGUGAAAAAAGUAAAUCCACUACAUGAGGAUCACCCAUGUAGAAGGGUGAUACA [Ex2 Design 177: Random 4B]”, the “apparent KD of MS2 coat protein” value worked out at 69.9 nM in the series on MS2 coat protein [1] and 62.2 nM in the series on MS2 coat protein [2].

In the case of “AUCAUGUUAGGAUAUAUAAGAAAAGAAAAGAAAGAAAAGAAAUAGAAGGAACAUGAGGAUCACCCAUGUAAGAA [EteRNA is fun!]”, the “apparent KD of MS2 coat protein” value turned out to be 17.5 nM in the series on MS2 coat protein [1] and 23.1 nM in the series on MS2 coat protein [2].

As for “AAGAAACAUGAGGAUCACCCAUGUCAGGAUAUGAAAAAGAAAAGAAAAGAAAGAAGAAUCAGAAGGGACAAAGG [Neferkauhor Khuwihapi]”, the entries for the “apparent KD of MS2 coat protein” value with MS2 coat protein [1] and with MS2 coat protein [2] were 74.1 nM and 27.4 nM, respectively.

Regarding “GAAAAGUCAGGAUAUACAGAAAAAAAAACGAAAAAAAAUCUGUAGAAGGGACAUGAGGAUCACCCAUGUAAAAA [Mat - Exclusion 4 - Mayanna - D122]”, the “apparent KD of MS2 coat protein” value in the series with MS2 coat protein [1] came to 51.4 nM; with MS2 coat protein [2], 37.6 nM.

On to “AACUGACAUGAGGAUCACCCAUGUCAGGAUAUGAUAUGUAAAAAAAAAAAAAUACUUAUCAGAAGGGACAUGGG [Design 40: Sub-opt AB]”, for which the entries for the “apparent KD of MS2 coat protein” value in the series with MS2 coat protein [1] and in the series with MS2 coat protein [2] were 15.3 nM and 15.4 nM, respectively.

For the sequence “CUCAAGUAAGGAUAUGUAAGAAAAGAAGAGAAAGAAAAGAAACAGAAGGUACAUGAGGAUCACCCAUGUAAGAA [EteRNA is fun!]”, the figures for the “apparent KD of MS2 coat protein” value with MS2 coat protein [1] and in the series on MS2 coat protein [2] were 30.4 nM and 28.2 nM, respectively.

For the sequence “AAUGCGGCAGGAUAUACAUGAGGAUCACCCAUGUAGAUCAGAUAUAUGGGAAAACCAUGUAGAAGGGCCGCAAA [Ex 3May 60]”, the “apparent KD of MS2 coat protein” value is 109 nM with MS2 coat protein [1] and 29.6 nM with MS2 coat protein [2].

On to “ACUUAUGAAGGAUAUACUAGCAACAUGCACUCAACACACACACAUGAGGAUCACCCAUGUAGAAGGUCAAACAU [JR_Exc002_Sub1206]”, for which the “apparent KD of MS2 coat protein” value amounted to 23.2 nM in the series on MS2 coat protein [1] and 19.7 nM with MS2 coat protein [2].

On to “AAGAAGUCAGGAUAUACUAAAGAAAUAAAAAGAAAGAAAGAACAUGAGGAUCACCCAUGUAGAAGGGACAAGAA [Sewadjare Mentuhotep V]”, for which the “apparent KD of MS2 coat protein” value in the series with MS2 coat protein [1] was 67.4 nM; in the series with MS2 coat protein [2], 31.7 nM.

As to “AAAUGACAUGAGGAUCACCCAUGUCAGGAUAUGACUUGAAAAAAAAAAAAAAAACAUGUCAGAAGGGACAUGGA [Design 51: Sub-opt G]”, the “apparent KD of MS2 coat protein” value stood at 22.8 nM in the series on MS2 coat protein [1] and 22.2 nM with MS2 coat protein [2].

In the case of “AAAAAACAUGAGGAUCACCCAUGUAAGGAUAUACCUAAAAAAAAAAAAAAAAAAAAUGGUAGAAGGUACAAAAA [excalibur12]”, the entries for the “apparent KD of MS2 coat protein” value in the series on MS2 coat protein [1] and with MS2 coat protein [2] were 28.1 nM and 67.5 nM, respectively.

Regarding “AGUUGGCGAGGAUAUACAUGAGGAUCACCCAUGUGAGAGAAAAAAGUGAGAAAGAAAUGUAGAAGGCGCUCACA [JL Lego Mod 13]”, the figures for the “apparent KD of MS2 coat protein” value with MS2 coat protein [1] and in the series on MS2 coat protein [2] were 62.8 nM and 37.5 nM, respectively.

With “GUAGUGUGAGGAUAUGGAUAGAAGAAGUGAAAGUAAGAGAACUAGAAGGCACAUGAGGAUCACCCAUGUAUGUG [JR_Exc004_Sub1701]”, the “apparent KD of MS2 coat protein” value in the series with MS2 coat protein [1] was 41.4 nM; with MS2 coat protein [2], 53.3 nM.
